{
  "source": "paper PMC12151379",
  "about": "(2025)",
  "binders": {"B1": {"name": "liprin-α2_CC2N (residues 300–404) (domain or fragment)", "chain": "EVEQEAETARKDLIKTEEMNTKYQRDIREAMAQKEDMEERITTLEKRYLSAQRESTSIHDMNDKLENELANKEAILRQMEEKNRQLQERLELAEQKLQQTMRKAE"}, "B2": {"name": "RIM1_C2B (residues 1166–1334) (domain or fragment)", "chain": "GPAQLVGRQTLATPAMGDIQIGMEDKKGQLEVEVIRARSLTQKPGSKSTPAPYVKVYLLENGACIAKKKTRIARKTLDPLYQQSLVFDESPQGKVLQVIVWGDYGRMDHKCFMGVAQILLEELDLSSMVIGWYKLFPPSSLVDPTLAPLTRRASQSSLESSSGPPCIRS"}},
  "experiment_in_all_cases": "ITC",
  "key": {"RIM1_C2B L1245Q": {"target": "T1, RIM1_C2B L1245Q (Rattus norvegicus)", "T1 chain": "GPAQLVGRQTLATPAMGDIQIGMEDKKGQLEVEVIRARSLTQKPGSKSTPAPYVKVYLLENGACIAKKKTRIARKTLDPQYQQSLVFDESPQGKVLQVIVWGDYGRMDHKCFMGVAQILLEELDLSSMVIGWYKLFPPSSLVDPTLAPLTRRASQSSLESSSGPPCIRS"}, "RIM1_C2B R1236E": {"target": "T2, RIM1_C2B R1236E (Rattus norvegicus)", "T2 chain": "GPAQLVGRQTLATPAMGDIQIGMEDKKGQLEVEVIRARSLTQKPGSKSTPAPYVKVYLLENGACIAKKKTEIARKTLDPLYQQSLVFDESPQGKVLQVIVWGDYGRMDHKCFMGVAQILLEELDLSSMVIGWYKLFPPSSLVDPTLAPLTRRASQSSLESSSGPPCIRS"}, "[1]": {"target": "B2"}, "RIM1_C2B K1240E": {"target": "T3, RIM1_C2B K1240E (Rattus norvegicus)", "T3 chain": "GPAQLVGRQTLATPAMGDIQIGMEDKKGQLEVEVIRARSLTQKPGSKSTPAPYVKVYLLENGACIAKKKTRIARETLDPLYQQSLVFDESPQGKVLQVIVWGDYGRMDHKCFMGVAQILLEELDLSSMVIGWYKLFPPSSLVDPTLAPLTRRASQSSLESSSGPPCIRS"}, "[2]": {"target": "T4, liprin-α2_CC2 (residues 259–542) (human, UniProt O75334 259-542)", "T4 chain": "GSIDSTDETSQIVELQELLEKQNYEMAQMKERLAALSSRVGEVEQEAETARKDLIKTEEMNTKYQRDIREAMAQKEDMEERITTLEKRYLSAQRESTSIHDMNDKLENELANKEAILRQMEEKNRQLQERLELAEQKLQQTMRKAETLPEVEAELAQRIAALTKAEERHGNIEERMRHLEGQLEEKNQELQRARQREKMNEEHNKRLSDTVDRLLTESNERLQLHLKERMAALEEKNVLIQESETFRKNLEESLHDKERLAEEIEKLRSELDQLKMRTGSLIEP"}, "[3]": {"target": "B1"}, "liprin-α2_CC2N E380R": {"target": "T5, liprin-α2_CC2N E380R (human, UniProt O75334 300-404, E380R)", "T5 sequence": "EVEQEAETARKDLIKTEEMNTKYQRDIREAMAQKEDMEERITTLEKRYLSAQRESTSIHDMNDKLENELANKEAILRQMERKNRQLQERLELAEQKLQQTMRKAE"}, "liprin-α2_CC2N A350S": {"target": "T6, liprin-α2_CC2N A350S (human, UniProt O75334 300-404, A350S)", "T6 sequence": "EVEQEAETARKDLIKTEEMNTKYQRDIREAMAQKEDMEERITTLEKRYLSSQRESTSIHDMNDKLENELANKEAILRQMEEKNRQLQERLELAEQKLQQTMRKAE"}},
  "data": [
    {"binder": "B1", "values": [
      {"measurement": "Kd", "setting": "RIM1_C2B L1245Q", "value": "> 100", "unit": "µM"},
      {"measurement": "Kd", "setting": "RIM1_C2B R1236E", "value": 27, "unit": "µM"},
      {"measurement": "Kd", "setting": "[1]", "value": 4, "unit": "µM"},
      {"measurement": "Kd", "setting": "RIM1_C2B K1240E", "value": 25, "unit": "µM"}
    ]},
    {"binder": "liprin-α2_CC2N R383A (protein) EVEQEAETARKDLIKTEEMNTKYQRDIREAMAQKEDMEERITTLEKRYLSAQRESTSIHDMNDKLENELANKEAILRQMEEKNAQLQERLELAEQKLQQTMRKAE", "values": [
      {"measurement": "Kd", "setting": "[1]", "value": 24, "unit": "µM"}
    ]},
    {"binder": "liprin-α2_CC2N E379R (protein) EVEQEAETARKDLIKTEEMNTKYQRDIREAMAQKEDMEERITTLEKRYLSAQRESTSIHDMNDKLENELANKEAILRQMREKNRQLQERLELAEQKLQQTMRKAE", "values": [
      {"measurement": "Kd", "setting": "[1]", "value": 23, "unit": "µM"}
    ]},
    {"binder": "B2", "values": [
      {"measurement": "Kd", "setting": "[2]", "value": 5, "unit": "µM"},
      {"measurement": "Kd", "setting": "[3]", "value": 4, "unit": "µM"},
      {"measurement": "Kd", "setting": "liprin-α2_CC2N E380R", "value": 8.2, "unit": "µM"},
      {"measurement": "Kd", "setting": "liprin-α2_CC2N A350S", "value": 5.7, "unit": "µM"}
    ]}
  ]
}
